The values below come from publication PMC11686404.

For the assay, the target named is native BnFMO, flavin monooxygenase from Bacillus niacini (Bacillus niacini). Put plainly: cryo-EM structure.

“native BnFMO, flavin monooxygenase from Bacillus niacini (enzyme)”: the stoichiometry N turned out to be 3.
